Laboratory results taken from the Human Domainome abundance scans (Beltran et al. 2025).
± gives the uncertainty stated by the source.

B1: LIM and senescent cell antigen-like-containing domain protein 2, residues 13 to 71; numbered along this chain, Q7Z4I7 (parent)
chain: AVCQRCQARFSPAERIVNSNGELYHEHCFVCAQCFRPFPEGLFYEFEGRKYCEHDFQML

Variants of: B1
Test: abundance fitness (aPCA) (normalised: wild type 0, dead -1); higher = more abundant; growth selection in yeast, the domain comes from the species named
Details: Homo sapiens

First: AVCQRCQARFSPAERIVFSNGELYHEHCFVCAQCFRPFPEGLFYEFEGRKYCEHDFQML [N18F]
Second: AVCQRCQARFSPAERIVKSNGELYHEHCFVCAQCFRPFPEGLFYEFEGRKYCEHDFQML [N18K]
The abundance fitness of the first is higher: 0.11 ± 0.18 for the first, -0.411 ± 0.14 for the second.

First: AVCQRCQARFSPAERIVYSNGELYHEHCFVCAQCFRPFPEGLFYEFEGRKYCEHDFQML [N18Y]
Second: AVCQRCQARFSPAERIVCSNGELYHEHCFVCAQCFRPFPEGLFYEFEGRKYCEHDFQML [N18C]
The abundance fitness of the first is lower: -0.603 ± 0.23 for the first, -0.089 ± 0.16 for the second.

AVCQRCQARFSPAERIVMSNGELYHEHCFVCAQCFRPFPEGLFYEFEGRKYCEHDFQML [N18M] and AVCQRCQARFSPAERIVGSNGELYHEHCFVCAQCFRPFPEGLFYEFEGRKYCEHDFQML [N18G] are within error of each other in abundance fitness: -0.323 ± 0.12 for the first, -0.15 ± 0.11 for the second.

Compared with AVCQRCQARFSPAERIVSSNGELYHEHCFVCAQCFRPFPEGLFYEFEGRKYCEHDFQML [N18S], AVCQRCQARFSPAERIVESNGELYHEHCFVCAQCFRPFPEGLFYEFEGRKYCEHDFQML [N18E] is higher in abundance fitness: -0.333 ± 0.07 for the first, -0.116 ± 0.094 for the second.

Going from AVCQRCQARFSPAERIVTSNGELYHEHCFVCAQCFRPFPEGLFYEFEGRKYCEHDFQML [N18T] to AVCQRCQARFSPAERIVLSNGELYHEHCFVCAQCFRPFPEGLFYEFEGRKYCEHDFQML [N18L], the abundance fitness falls from -0.312 ± 0.096 to -0.615 ± 0.071.

Compared with AVCQRCQARFSPAERIVVSNGELYHEHCFVCAQCFRPFPEGLFYEFEGRKYCEHDFQML [N18V], AVCQRCQARFSPAERIVWSNGELYHEHCFVCAQCFRPFPEGLFYEFEGRKYCEHDFQML [N18W] is lower in abundance fitness: -0.316 ± 0.08 for the first, -0.639 ± 0.12 for the second.

AVCQRCQARFSPAERIVPSNGELYHEHCFVCAQCFRPFPEGLFYEFEGRKYCEHDFQML [N18P] and AVCQRCQARFSPAERIVRSNGELYHEHCFVCAQCFRPFPEGLFYEFEGRKYCEHDFQML [N18R] are within error of each other in abundance fitness: -0.191 ± 0.086 for the first, -0.202 ± 0.072 for the second.

AVCQRCQARFSPAERIVQSNGELYHEHCFVCAQCFRPFPEGLFYEFEGRKYCEHDFQML [N18Q] and AVCQRCQARFSPAERIVASNGELYHEHCFVCAQCFRPFPEGLFYEFEGRKYCEHDFQML [N18A] are within error of each other in abundance fitness: -0.06 ± 0.084 for the first, -0.227 ± 0.092 for the second.

AVCQRCQARFSPAERIVHSNGELYHEHCFVCAQCFRPFPEGLFYEFEGRKYCEHDFQML [N18H] and AVCQRCQARFSPAERIVDSNGELYHEHCFVCAQCFRPFPEGLFYEFEGRKYCEHDFQML [N18D] are within error of each other in abundance fitness: -0.281 ± 0.2 for the first, -0.068 ± 0.28 for the second.

AVCQRCQARFSPAERIVISNGELYHEHCFVCAQCFRPFPEGLFYEFEGRKYCEHDFQML [N18I] and AVCQRCQARFSPAERIENSNGELYHEHCFVCAQCFRPFPEGLFYEFEGRKYCEHDFQML [V17E] are within error of each other in abundance fitness: -0.244 ± 0.17 for the first, -0.251 ± 0.087 for the second.

AVCQRCQARFSPAERIRNSNGELYHEHCFVCAQCFRPFPEGLFYEFEGRKYCEHDFQML [V17R] and AVCQRCQARFSPAERIINSNGELYHEHCFVCAQCFRPFPEGLFYEFEGRKYCEHDFQML [V17I] are within error of each other in abundance fitness: -0.117 ± 0.049 for the first, 0.009 ± 0.12 for the second.

AVCQRCQARFSPAERIKNSNGELYHEHCFVCAQCFRPFPEGLFYEFEGRKYCEHDFQML [V17K] and AVCQRCQARFSPAERIDNSNGELYHEHCFVCAQCFRPFPEGLFYEFEGRKYCEHDFQML [V17D] are within error of each other in abundance fitness: 0.03 ± 0.1 for the first, -0.298 ± 0.24 for the second.

Going from AVCQRCQARFSPAERITNSNGELYHEHCFVCAQCFRPFPEGLFYEFEGRKYCEHDFQML [V17T] to AVCQRCQARFSPAERIMNSNGELYHEHCFVCAQCFRPFPEGLFYEFEGRKYCEHDFQML [V17M], the abundance fitness falls from -0.048 ± 0.068 to -0.248 ± 0.085.

Compared with AVCQRCQARFSPAERIHNSNGELYHEHCFVCAQCFRPFPEGLFYEFEGRKYCEHDFQML [V17H], AVCQRCQARFSPAERIPNSNGELYHEHCFVCAQCFRPFPEGLFYEFEGRKYCEHDFQML [V17P] is lower in abundance fitness: 0.01 ± 0.12 for the first, -0.727 ± 0.11 for the second.

AVCQRCQARFSPAERIGNSNGELYHEHCFVCAQCFRPFPEGLFYEFEGRKYCEHDFQML [V17G] and AVCQRCQARFSPAERICNSNGELYHEHCFVCAQCFRPFPEGLFYEFEGRKYCEHDFQML [V17C] are within error of each other in abundance fitness: -0.372 ± 0.079 for the first, -0.298 ± 0.13 for the second.

Compared with AVCQRCQARFSPAERIYNSNGELYHEHCFVCAQCFRPFPEGLFYEFEGRKYCEHDFQML [V17Y], AVCQRCQARFSPAERIWNSNGELYHEHCFVCAQCFRPFPEGLFYEFEGRKYCEHDFQML [V17W] is lower in abundance fitness: -0.262 ± 0.14 for the first, -0.492 ± 0.077 for the second.

AVCQRCQARFSPAERILNSNGELYHEHCFVCAQCFRPFPEGLFYEFEGRKYCEHDFQML [V17L] and AVCQRCQARFSPAERINNSNGELYHEHCFVCAQCFRPFPEGLFYEFEGRKYCEHDFQML [V17N] are within error of each other in abundance fitness: -0.003 ± 0.053 for the first, -0.147 ± 0.14 for the second.

AVCQRCQARFSPAERIFNSNGELYHEHCFVCAQCFRPFPEGLFYEFEGRKYCEHDFQML [V17F] and AVCQRCQARFSPAERIVNENGELYHEHCFVCAQCFRPFPEGLFYEFEGRKYCEHDFQML [S19E] are within error of each other in abundance fitness: -0.019 ± 0.095 for the first, -0.015 ± 0.097 for the second.

AVCQRCQARFSPAERIVNDNGELYHEHCFVCAQCFRPFPEGLFYEFEGRKYCEHDFQML [S19D] and AVCQRCQARFSPAERIVNANGELYHEHCFVCAQCFRPFPEGLFYEFEGRKYCEHDFQML [S19A] are within error of each other in abundance fitness: 0.058 ± 0.11 for the first, -0.106 ± 0.073 for the second.

AVCQRCQARFSPAERIVNCNGELYHEHCFVCAQCFRPFPEGLFYEFEGRKYCEHDFQML [S19C] and AVCQRCQARFSPAERCVNSNGELYHEHCFVCAQCFRPFPEGLFYEFEGRKYCEHDFQML [I16C] are within error of each other in abundance fitness: -0.117 ± 0.096 for the first, -0.069 ± 0.078 for the second.

AVCQRCQARFSPAERMVNSNGELYHEHCFVCAQCFRPFPEGLFYEFEGRKYCEHDFQML [I16M] and AVCQRCQARFSPAERQVNSNGELYHEHCFVCAQCFRPFPEGLFYEFEGRKYCEHDFQML [I16Q] are within error of each other in abundance fitness: 0.026 ± 0.055 for the first, -0.069 ± 0.061 for the second.

First: AVCQRCQARFSPAERYVNSNGELYHEHCFVCAQCFRPFPEGLFYEFEGRKYCEHDFQML [I16Y]
Second: AVCQRCQARFSPAERTVNSNGELYHEHCFVCAQCFRPFPEGLFYEFEGRKYCEHDFQML [I16T]
The abundance fitness of the first is lower: -0.2 ± 0.082 for the first, 0.07 ± 0.051 for the second.

In the case of AVCQRCQARFSPAEREVNSNGELYHEHCFVCAQCFRPFPEGLFYEFEGRKYCEHDFQML [I16E], the abundance fitness is reported as -0.341 ± 0.13.
